For orientation: Ki means a dissociation constant, usually derived from enzyme kinetics or from competition with a known ligand. High values mean lower affinity, low ones higher affinity.

Here are results for one molecule from patent US6913892.

Where no end group is shown, it is not given here.

This experiment has as its target Y2-like receptor population expressed by human SK-N-Be(2) neuroblastoma cells. The experiment in a line: 125I-PYY displacement, SK-N-Be(2) membranes.

B1: porcine PYY13-36 (peptide, UniProt P68005 13-36, looked up)
peptide: SPEELSRYYASLRHYLNLVTRQRY-NH2
B1 came in with a Ki of 860 pM.
